This is an account of results in US20250114430A1 (UNIVERSITY OF NORTH CAROLINA AT CHAPEL HILL, published 2025).

Assay [1] concerns the target T1, Orai1 plasma membrane Ca^2+ channel (endogenous, HEK293T cells and ARDS patient immune cells) (UniProt Q96D31 1-301, limits assumed). Put plainly: cell-based or functional assay.
The target in assay [2] is T1, Orai1 plasma membrane Ca^2+ channel …. The assay is described as follows: cell-based or functional assay. This is another data set of the same source.
The target in assay [3] is T2, peptide of Orai1's second extracellular loop (OP2).
T2 construct: Peptide corresponding to amino acids 195-234 of Orai1
T2 peptide: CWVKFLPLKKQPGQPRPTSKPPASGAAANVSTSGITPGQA
The assay is described as follows: dynamic light scattering (Z-average). From the text:
(§1) Endogenous Orai1/store operated Ca²⁺ influx have been extensively studied in HEK293T cells, so this cell type was used to understand ELD607-Orai1 interactions. […] Thapsigargin is a SERCA pump inhibitor that prevents uptake of cytosolic Ca²⁺ into the endoplasmic reticulum. Thapsigargin is commonly used to stimulate Orai1/store operated Ca²⁺ influx. […] Dynamic light scattering (DLS) was used to evaluate binding of ELD607 to peptides of Orai1 extracellular loops. […] Thus, it was concluded that ELD607 interacts with Orai1.

The target of assay [4] is T3, Orai1 extracellular peptide 1 (OP1).
T3 peptide: EVQLDADHDYPPGL
Put plainly: dynamic light scattering, Z-average increased.
Description: as §1

T1 sequence (Q96D31 whole entry): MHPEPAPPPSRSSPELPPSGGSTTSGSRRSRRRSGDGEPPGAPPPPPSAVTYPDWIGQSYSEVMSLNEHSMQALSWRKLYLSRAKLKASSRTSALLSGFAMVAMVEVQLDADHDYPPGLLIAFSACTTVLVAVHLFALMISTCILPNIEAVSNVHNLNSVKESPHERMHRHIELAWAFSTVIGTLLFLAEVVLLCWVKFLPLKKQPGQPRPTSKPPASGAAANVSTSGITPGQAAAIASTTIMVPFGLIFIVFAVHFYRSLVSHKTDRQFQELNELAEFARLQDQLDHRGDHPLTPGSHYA

Turning to DITLVHDIVNMLIHGL [ELD100 peptide], the “IC50, inhibiting store operated Ca^2+ influx in HEK293T cells” value in assay [1] came to 124 nM. Further, in assay [2], the “IC50 (Molar), Ca^2+ influx after Ca^2+ add back, HEK293T cells” value came to 3.7e-08 Molar.

B1: ELD607 (peptide)
peptide: VHDIVNMLIRG
notes: Synthetic 11-residue peptidomimetic derived from ELD100 (H14R, deletion of positions 1-4, L16 deletion); also called ELD142-11
In the case of B1, the binding result was “no binding” in assay [3] and “binds” in assay [4]. Moreover, the “IC50, inhibiting store operated Ca^2+ influx in HEK293T cells” value in assay [1] worked out at 9 nM. Moreover, the “IC50 (Molar), Ca^2+ influx after Ca^2+ add back, HEK293T cells” value in assay [2] stood at 8.1e-08 Molar.
